These results are taken from PMC10169808, “Two legume fatty acid amide hydrolase isoforms with distinct preferences for microbial- and plant-derived acylamides” (Scientific Reports, 2023).

Data set [1] deals with Medicago truncatula fatty acid amide hydrolase 2a (MtFAAH2a) (Medicago truncatula). In words: SEC; Superdex 200 Increase 10/300 GL; buffers at pH 7.5, 0.06% DDM; mass interpolated from Kav against standards, mean elution volume of six purifications, DDM micelle (about 70 kDa) taken into account. On the technique in general: Size exclusion chromatography separates by hydrodynamic size, large species first.

For data set [2], the target named is Medicago truncatula fatty acid amide hydrolase 1 (MtFAAH1) (Medicago truncatula). In words: SEC; Superdex 200 Increase 10/300 GL; 50 mM Bis-Tris-Propane pH 9.0, 100 mM NaCl, 0.03% DDM; mass interpolated from Kav against standards, mean elution volume of six purifications, DDM micelle (about 70 kDa) taken into account.
Substrate in data set [3]: C/C=C/C=C\CC/C=C/C(=O)NCC(C)C
In words: fluorescamine assay of released amine, Michaelis-Menten fit. Type of data set: biochemical, Medicago truncatula. As to conditions: 100 mM NaCl, 30 °C, apparent.

Substrate in data set [4]: CCCCC/C=C\C/C=C\CCCCCCCC(=O)NCCO
The description is as above. The data set is classed as biochemical, Medicago truncatula. Particulars: 100 mM NaCl, 30 °C, apparent.

Substrate in data set [5]: CCCCC/C=C\C=C\C(O)CCCCCCCC(=O)NCCO
Described as above. Type of data set: biochemical, Medicago truncatula. As to conditions: 100 mM NaCl, 30 °C, apparent.

Substrate in data set [6]: CCCCCCCCCC(=O)CC(=O)N[C@H]1CCOC1=O
The description is as above. As to conditions: 100 mM NaCl, 30 °C, apparent. The data set is classed as biochemical, Medicago truncatula.

Substrate in data set [7]: CCCCCCCCCCCC(=O)CC(=O)N[C@H]1CCOC1=O
Described as above. The data set is classed as biochemical, Medicago truncatula. As to conditions: 100 mM NaCl, 30 °C, apparent.

Substrate in data set [8]: CCCCCCCCCCCC(=O)NCCO
Described as above. The data set is classed as biochemical, Medicago truncatula. Particulars: 100 mM NaCl, 30 °C, apparent.

Substrate in data set [9]: O=C(/C=C/c1ccc(O)cc1)NCCc1ccc(O)cc1
The description is as above. Type of data set: biochemical, Medicago truncatula. As to conditions: 100 mM NaCl, 30 °C, apparent.

Substrate in data set [10]: O=C(/C=C/c1ccc(O)cc1)N[C@H]1CCOC1=O
Described as above. The data set is classed as biochemical, Medicago truncatula. Particulars: 100 mM NaCl, 30 °C, apparent.

Data set [11] concerns the molecule itself. Description: SEC; AtFAAH run as reference for the MtFAAH calculations, in solution with detergent; its conditions are not told in the text (Supplementary Fig. S13).

Regarding “Medicago truncatula fatty acid amide hydrolase 2a (MtFAAH2a) (enzyme)”, in data set [1], the stoichiometry N (as a rule, the number of molecules, sites or subunits per partner or assembly) amounted to 4.
“Medicago truncatula fatty acid amide hydrolase 1 (MtFAAH1) (enzyme)” returned a stoichiometry N in data set [2] of 4.

B1: MtFAAH2a (Medicago truncatula) (protein)
chain: MGLFKSKRVVYKPVKDVNLGPDSTEFYLQANVKAPRMTGILVKIVAWLLECRIIGAFLLYILKGNNLIHKYITNADIEEPPLYVPLHHFEDHKEQEVKSLDLALTPPDKVQVAIDCLPTTLQRPINGTKPSFNRWTIMDYFRAYSSGDITPHMVAERFIAAVDESSKPTLQMGFFINYNVEDILRQANESTLRYQKGEPISVLDGVPVAIKDEIDCLPYPTTGGTKWLHKQRPCTDDACCIKRLRLCGAVLVGKTNMHELGAGTSGINPHYGATRNPHNASRIAGGSSSGSAAVVSAGLCPVALGVDGGGSVRMPAALCGIVGLKPTFSRIPHSGVIPLNWTVGMVGILAGTVEDSLITYAAISGEIPSRQPSSIPAKINLPLLPLTKSISKIKLAKYGKWFDDCSDDVRICCSGALNKLQGHYGWKIVDVTIPEIEVMRLAHYSTIGSECNTSLDYFQDKNLADFGWDARVALKIYGSFSSMEYIKAQKIRNRQLQFHKKIFSEADIIVSPTTGVTAYPIQDDALKTGELDYVNGAALIRYSIAGNFLGLPAVTVPVGYDKLGLPIGLQFIGRPWAEATLIHLAFAMQTICLSEYRKPAIFYDLLRTN
notes: full-length synthesized CDS (GENEWIZ) subcloned in pTrcHIS2, C-terminal c-myc and 6xHis tags, E. coli; estimated homotetramer in DDM; catalytic Ser311
For B1, the Km – broadly, the substrate concentration at which the rate is half of its maximum – in data set [3] (pH 7.5, 25 mM HEPES, 0.06% DDM) was determined as 7.64 ± 1.5 µM; in [4] (pH 7.5, 25 mM HEPES, 0.06% DDM) it was 15.1 ± 2.9 µM; in [5] (pH 7.5, 25 mM HEPES, 0.06% DDM), 18.7 ± 2.9 µM; in [6] (pH 7.5, 25 mM HEPES, 0.06% DDM), 13.2 ± 2.1 µM; in [7] (pH 7.5, 25 mM HEPES, 0.06% DDM) it was 14.6 ± 1.7 µM; in [8] (pH 7.5, 25 mM HEPES, 0.06% DDM) it was 13.8 ± 1.7 µM. Also, the Km stood at 10.8 ± 1.1 µM in data set [9] (pH 7.5, 25 mM HEPES, 0.06% DDM) and 13.8 ± 1.9 µM in data set [10] (pH 7.5, 25 mM HEPES, 0.06% DDM). For the same molecule, the kcat (in general, the maximal rate divided by the concentration of active sites) is 1.28 s⁻¹ in data set [3] (pH 7.5, 25 mM HEPES, 0.06% DDM); 0.60 s⁻¹ in [4] (pH 7.5, 25 mM HEPES, 0.06% DDM); 0.35 s⁻¹ in data set [5] (pH 7.5, 25 mM HEPES, 0.06% DDM); 1.11 s⁻¹ in data set [6] (pH 7.5, 25 mM HEPES, 0.06% DDM); 0.96 s⁻¹ in [7] (pH 7.5, 25 mM HEPES, 0.06% DDM); 1.26 s⁻¹ in [8] (pH 7.5, 25 mM HEPES, 0.06% DDM). The turnover number (kcat) in [9] (pH 7.5, 25 mM HEPES, 0.06% DDM) is 1.51 s⁻¹; in data set [10] (pH 7.5, 25 mM HEPES, 0.06% DDM) it was 1.64 s⁻¹.

B2: MtFAAH1 (Medicago truncatula) (protein)
chain: MGKKRVMVPAKDVDLSSIKYEPEIVQAPHLTGFWFRFFVRLIEAPLIGPFLLTMLKKENKIDQLLRNTVFPEEPMFKPEYPPQEKEHSVVELDEDGRPEGRVESALNCLPHYDPAKLWENSSATFRYWKIRDYAYAYQSRKVTPSMVAESIISMIEENGIDKPPTPLLLSFDAAEVRKQAAASTQRFESGNPLSILDGIFIAIKDDIDCHPHPSTGGSTWMHEVRDVKKDAVCVSRLRSCGVIFIGKTNMHEFGMGTTGNNSNYGTARNPHAPDRYTGGSSSGPAAIVASGLCSAALGTDGGGSVRIPSSLCGVVGLKINYGRTSMEGSLCDSGTVEVIGPIASTVEDAMLVYAAMLGASPANRISMKPSTPCLPTLSSDDDTDALRSLRIGIYTPWFNNVHSTEVSDKCEDALNLLSKAHGCEVVEVVIPEIVEMRTAHLVSIGSECLSSLNPDIEDGKGVKLSYDTRTSLALFQSFTAADYVAAQCIRRRIMHYFMEIFKKVDVIVTPTTGMTAPRIPPSALKSGETDMPTTGYLMRFVVPANLLGLPAISVPVGYDKEGLPIGLQVIGRPWAEATILRVAAAVEKLCGESKRRPVTYYDVLGAN
notes: full-length CDS from A17 stem cDNA; C-terminal c-myc and 6xHis tags (pTrcHIS2), E. coli BL21(DE3); estimated homotetramer in DDM; catalytic Ser304
Take B2: the Km in [3] (pH 9, 25 mM HEPES, 0.03% DDM) is listed as 6.81 ± 2.6 µM; in data set [4] (pH 9, 25 mM HEPES, 0.03% DDM), 4.83 ± 0.6 µM; in [5] (pH 9, 25 mM HEPES, 0.03% DDM) it was 5.00 ± 0.4 µM; in [6] (pH 9, 25 mM HEPES, 0.03% DDM), 5.33 ± 0.6 µM; in data set [7] (pH 9, 25 mM HEPES, 0.03% DDM), 5.60 ± 0.6 µM; in [8] (pH 9, 25 mM HEPES, 0.03% DDM), 13.9 ± 3.6 µM. For the same molecule, the Km in [9] (pH 9, 25 mM HEPES, 0.03% DDM) came to 25.9 ± 7.0 µM; in [10] (pH 9, 25 mM HEPES, 0.03% DDM), 10.2 ± 2.5 µM. Besides, the kcat amounted to 0.32 s⁻¹ in [3] (pH 9, 25 mM HEPES, 0.03% DDM); 1.05 s⁻¹ in data set [4] (pH 9, 25 mM HEPES, 0.03% DDM); 1.25 s⁻¹ in [5] (pH 9, 25 mM HEPES, 0.03% DDM); 0.87 s⁻¹ in data set [6] (pH 9, 25 mM HEPES, 0.03% DDM); 0.79 s⁻¹ in data set [7] (pH 9, 25 mM HEPES, 0.03% DDM); 0.86 s⁻¹ in data set [8] (pH 9, 25 mM HEPES, 0.03% DDM). Besides, the kcat is 0.51 s⁻¹ in data set [9] (pH 9, 25 mM HEPES, 0.03% DDM) and 0.33 s⁻¹ in data set [10] (pH 9, 25 mM HEPES, 0.03% DDM).

B3: Arabidopsis thaliana fatty acid amide hydrolase (AtFAAH) (enzyme)
chain: MGKYQVMKRASEVDLSTVKYKAETMKAPHLTGLSFKLFVNLLEAPLIGSLIVDYLKKDNGMTKIFRNTVIPEEPMFRPEFPSQEPEHDVVIVGEDESPIDRLETALKCLPQYDPSRSLHADPVSSFRYWKIRDYAYAYRSKLTTPLQVAKRIISIIEEFGYDKPPTPFLIRFDANEVIKQAEASTRRFEQGNPISVLDGIFVTIKDDIDCLPHPTNGGTTWLHEDRSVEKDSAVVSKLRSCGAILLGKANMHELGMGTTGNNSNYGTTRNPHDPKRYTGGSSSGSAAIVAAGLCSAALGTDGGGSVRIPSALCGITGLKTTYGRTDMTGSLCEGGTVEIIGPLASSLEDAFLVYAAILGSSSADRYNLKPSPPCFPKLLSHNGSNAIGSLRLGKYTKWFNDVSSSDISDKCEDILKLLSNNHGCKVVEIVVPELEEMRAAHVISIGSPTLSSLTPYCEAGKNSKLSYDTRTSFAIFRSFSASDYIAAQCLRRRLMEYHLNIFKDVDVIVTPTTGMTAPVIPPDALKNGETNIQVTTDLMRFVLAANLLGFPAISVPVGYDKEGLPIGLQIMGRPWAEATVLGLAAAVEELAPVTKKPAIFYDILNTN
notes: AtFAAH, fatty acid amide hydrolase (a FAAH1 enzyme), Arabidopsis thaliana; also called A. thaliana FAAH; AtFAAH1; source: recombinant, purified
Take B3: in data set [11], the “stoichiometry N” value was 2.
